Measurements from patent US20260365759 (published 2026).

B1: mAb 27 (antibody, V domains shown)
VH: QIQLVQSGPELKKPGETVKISCKASGYTFTNYGMNWVKQAPGKGLKWIGWINTYTGDPTYADDFKGRFAFSLETSASNGYLQIDNLKKEDTATYFCARRDIFAMDYWGQGTSVTVSS
VL: DIQMTQTTSSLSASLGDRVTITCRASQDIMKYLHWYQQKPDGTIKLLFYYTSRLHSGVPSRFSGSGSGTDYSLTISNLEQEDIATYFCQQDVKYPWTFGGGTKLEIK
B2: mAb 11 (antibody, V domains shown)
VH: QVQLQQPGTELVKPGASVKLSCKASGYTFTNYWMHWVKQRPGQGLEWIGNINPFNGATNYNDNFKTKATLTVDKSSSTAYMHLSSLTSEDSAVYYCARYDYSKYYAMDYWGQGTSVTVSS
VL: ENVLTQSPAIMAASPGDKVTMTCSASSSINSAHFHWYQQKPGTSPKLWIYRTSNLASGVPARFSGRGSGTSYSLTISSMEAADAATYYCQQWSDYPWTFGGGTKLEIR
B3: mAb 123 (antibody, V domains shown)
VH: QIQLVQSGPELKKPGETVKISCKGSGYTFTNYGMNWVKQAPGKGLKWMGWINTYTGDPTYADDFKGRIAFSLETSASTAYLQIDNLKNEDTATYFCARRDIFAMDYWGQGTSVTVSS
VL: DIQMTQTTSSLSASLGDRVTITCRASQDIMKYLHWYQQKPDGTVKLLIYYTSRLHSGVPSRFSGSGSGTDYSLTISNLEQEDIATYFCQQDIKYPWTFGGGTKLEIK
B4: mAb 75 (antibody, V domains shown)
VH: QIQLVQSGPELKKPGETVKISCKASGYTFTNYGMNWVKQAPGKGLKWMGLINTYTRGPTFADDFKGRFAFSVETSANTAYLQINNLKTEDTATYFCARRGEYYGSSYVDYWGQGTTLTVSS
VL: DIQMTQITSSLSASLGDRVTISCRASQDIMHFLNWYQQKPDGTVKLLIYYTSRLHSGVPSRFSGSGSGTDYSLTITNLEPEDIATYYCQQHSNLPPTFGGGTKLEIK
B5: mAb 22 (antibody, V domains shown)
VH: QIQLVQSGPELKKPGETVKISCKASGYTFTNYGMNWVKQAPGKGLKWIGWINTYTGDPTYADDFKGRFAFSLETSASNGYLQIDNLKKEDTATYFCARRDIFAMDYWGQGTSVTVSS
VL: DIQMTQTTSSLSASLGDRVTITCRASQDIMKYLHWYQQKPDGTIKLLIYYTSRLHSGVPSRFSGSGSGTDYSLTISNLEQEDIATYFCQQDVKYPWTFGGGTKLEIK

Molecular target: T1, Pepsinogen C (PGC) (human)
T1 chain: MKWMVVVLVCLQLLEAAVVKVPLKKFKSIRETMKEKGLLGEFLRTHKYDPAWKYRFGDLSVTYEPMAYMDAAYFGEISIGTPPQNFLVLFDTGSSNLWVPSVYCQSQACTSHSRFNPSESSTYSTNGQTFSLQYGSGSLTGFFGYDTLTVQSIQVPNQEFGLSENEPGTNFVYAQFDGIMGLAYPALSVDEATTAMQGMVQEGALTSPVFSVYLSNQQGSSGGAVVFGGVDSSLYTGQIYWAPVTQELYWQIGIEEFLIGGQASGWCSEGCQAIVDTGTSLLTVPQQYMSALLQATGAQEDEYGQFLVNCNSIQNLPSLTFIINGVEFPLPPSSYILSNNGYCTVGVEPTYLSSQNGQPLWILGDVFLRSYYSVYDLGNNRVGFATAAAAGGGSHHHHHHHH
Assay: SPR, 37C, order of magnitude only

Row | Binder | Kd
1 | B1 | ~100 pM
2 | B2 | ~100 pM
3 | B3 | ~100 pM
4 | B4 | ~100 pM
5 | B5 | ~10 pM
